From US20090048324A1 (FOX CHASE CANCER CENTER, published 2009)
Positions count from the first letter of the chain named.

What was measured:
[1] = target: the molecule itself; experiment: purification and dialysis against magnesium
[2] = target: T1, human PBGS variant F12L (human, UniProt P13716 1-330); experiment: coexpression, Q-Sepharose chromatography
T1 construct: Hexamer in the crystal structure (PDB 1PV8); tetramer/hexamer mix in sedimentation equilibrium; also called F12L hexamer
T1 chain: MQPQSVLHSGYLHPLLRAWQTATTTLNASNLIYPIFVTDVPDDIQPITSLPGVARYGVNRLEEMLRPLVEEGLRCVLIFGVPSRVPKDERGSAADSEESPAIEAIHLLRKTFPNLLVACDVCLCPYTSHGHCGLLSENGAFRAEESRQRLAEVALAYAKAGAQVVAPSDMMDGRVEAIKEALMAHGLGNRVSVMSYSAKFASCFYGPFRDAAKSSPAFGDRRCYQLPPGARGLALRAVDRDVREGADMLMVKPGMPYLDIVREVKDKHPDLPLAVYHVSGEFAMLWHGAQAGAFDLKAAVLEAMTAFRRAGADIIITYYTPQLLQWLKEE

[3] = target: the molecule itself; experiment: cell-based or functional assay

B1: Pseudomonas aeruginosa porphobilinogen synthase (enzyme)
chain: MSFTPANRAYPYTRLRRNRRDDFSRRLVRENVLTVDDLILPVFVLDGVNQRESIPSMPGVERLSIDQLLIEAEEWVALGIPALALFPVTPVEKKSLDAAEAYNPEGIAQRATRALRERFPELGIITDVALDPFTTHGQDGILDDDGYVLNDVSIDVLVRQALSHAEAGAQVVAPSDMMDGRIGAIREALESAGHTNVRIMAYSAKYASAYYGPFRDAVGSASNLGKGNKATYQMDPANSDEALHEVAADLAEGADMVMVKPGMPYLDIVRRVKDEFRAPTFVYQVSGEYAMHMGAIQNGWLAESVILESLTAFKRAGADGILTYFAKQAAEQLRRGR
notes: Purified as a dimer without magnesium and converted to the octamer by dialysis against magnesium; also called P. aeruginosa PBGS
- binding result [1]: binds

B2: wild type human porphobilinogen synthase (PBGS), parent construct N59/C162A (enzyme)
chain: T1 chain with L12F
notes: Homo-oligomer, predominantly an octamer; also called Wt; WT
- binding result [2]: binds

B3: pea (Pisum sativum) porphobilinogen synthase (enzyme, Pisum sativum (pea), UniProt P30124 69-398, looked up)
chain: SLPIQRRPRRNRRSPALRSAFQETTLSPANFVYPLFIHEGEEDTPIGAMPGCYRLGWRHGLLEEVAKARDVGVNSVVLFPKIPDALKTPTGDEAYNEDGLVPRSIRLLKDKYPDLIIYTDVALDPYSSDGHDGIVREDGVIMNDETVHQLCKQAVAQARAGADVVSPSDMMDGRVGAMRVALDAEGFQHVSIMSYTAKYASSFYGPFREALDSNPRFGDKKTYQMNPANYREALTEMREDESEGADILLVKPGLPYLDIIRLLRDNSPLPIAAYQVSGEYSMIKAGGALKMIDEEKVMMESLLCLRRAGADIILTYFALQAARTLCGEKR
- EC50 (read off the curve), specific activity against pea PBGS subunit concentration [3]: ~30 nM
